PMC5267388
Several values for one entry are separate records, joined by “and”; a condition that tells them apart may be missing. Equal entries are not always repeated.

Biological target: PSD95, endogenous, from mouse brain lysate (mouse (endogenous in mouse brain)) (UniProt Q62108)
Assay: co-IP

Phosphorylated Sept7 (pT426), endogenous, from mouse brain lysate, sequence (O55131 2-436): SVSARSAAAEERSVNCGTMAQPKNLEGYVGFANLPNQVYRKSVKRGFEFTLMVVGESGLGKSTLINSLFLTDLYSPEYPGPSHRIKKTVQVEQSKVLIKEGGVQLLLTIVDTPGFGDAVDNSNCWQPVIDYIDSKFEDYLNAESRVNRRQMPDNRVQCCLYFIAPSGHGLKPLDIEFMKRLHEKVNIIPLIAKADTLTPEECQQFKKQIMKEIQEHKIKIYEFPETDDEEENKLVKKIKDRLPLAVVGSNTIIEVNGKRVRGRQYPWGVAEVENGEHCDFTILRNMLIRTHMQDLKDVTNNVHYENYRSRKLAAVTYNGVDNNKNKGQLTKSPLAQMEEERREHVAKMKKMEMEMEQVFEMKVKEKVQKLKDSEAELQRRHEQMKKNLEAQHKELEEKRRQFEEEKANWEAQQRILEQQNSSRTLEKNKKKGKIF
PSD95, endogenous, from mouse brain lysate (mouse (endogenous in mouse brain)), sequence (Q62108 whole entry): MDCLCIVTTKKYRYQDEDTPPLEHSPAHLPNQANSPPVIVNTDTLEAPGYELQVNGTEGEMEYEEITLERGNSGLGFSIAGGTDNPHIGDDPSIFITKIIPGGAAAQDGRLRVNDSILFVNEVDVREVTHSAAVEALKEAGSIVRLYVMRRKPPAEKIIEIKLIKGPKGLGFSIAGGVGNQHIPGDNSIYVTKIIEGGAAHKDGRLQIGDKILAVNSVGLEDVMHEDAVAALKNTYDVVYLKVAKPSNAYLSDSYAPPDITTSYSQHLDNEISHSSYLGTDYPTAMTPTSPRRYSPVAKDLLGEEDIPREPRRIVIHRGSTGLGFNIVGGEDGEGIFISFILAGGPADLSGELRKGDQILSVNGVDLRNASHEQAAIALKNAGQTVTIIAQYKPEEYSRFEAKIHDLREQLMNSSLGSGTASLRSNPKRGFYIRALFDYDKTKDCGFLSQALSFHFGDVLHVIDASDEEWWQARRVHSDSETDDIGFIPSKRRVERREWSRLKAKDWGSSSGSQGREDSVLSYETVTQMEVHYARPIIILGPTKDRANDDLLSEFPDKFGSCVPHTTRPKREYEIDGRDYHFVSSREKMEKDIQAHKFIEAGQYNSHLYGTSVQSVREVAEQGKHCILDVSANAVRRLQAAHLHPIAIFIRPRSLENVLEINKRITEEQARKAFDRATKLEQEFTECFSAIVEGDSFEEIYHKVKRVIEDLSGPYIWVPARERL

percent of endogenous Sept7 pulled down with PSD95: 10% and 15%
Substance: Phosphorylated Sept7 (pT426), endogenous, from mouse brain lysate (from UniProt O55131 1-436) (natural protein)
